These results are taken from patent US11369662B2 (The Medical College of Wisconsin, Inc., priority 2014, dated 2022).

Assay [1] has as its target T1, CXCR4 (Y7A, Y12A, Y21A) (Homo sapiens, UniProt P61073, Y12A/Y21A/Y7A).
T1 construct: expressed in transfected cells; host or cells: CHO-K1 stably expressing Galpha15 (transient)
The assay can be described thus: Calcium flux in CHO-K1 cells, FLAG-tagged CXCR4 with Y7A, Y12A and Y21A. The format is cell-based. How it is done: (§1) Cell culture. Chinese hamster ovary K1 (CHO-K1) cells, stably transfected with the Gα15 gene in pcDNA3.1+, were cultured in a 1:1 mixture of Dulbecco's modified Eagle medium (DMEM) with Glutamax (Gibco):F12 nutrient mixture (Gibco) supplemented with 10% (w/v) fetal bovine serum (FBS) (Gibco). Stable expression of the Gα15 transgene was maintained by further supplementing the growth medium with 700 μg ml^−1 geneticin (Gibco).
(§2) Transfections. For transient transfections with the Flag-CXCR4 WT and N-terminally mutated constructs, the CHO-K1 Gα15 stable cells were lifted using 0.25% (v/v) trypsin-EDTA (Gibco), and 2×10^6 cells were re-plated onto 10 cm culture dishes. […] The cells were transfected 24 hours later using the Mirus TransIT-CHO Transfection Kit according to the manufacturers protocol, with the following exceptions: the amount of CHO transfection reagent was scaled up to 4 μl μg^−1 of DNA in the transfection mixtures, and the amount of CHO mojo reagent was scaled up to 1 μl μg^−1 of DNA in the mixtures. […]
(§3) Calcium flux. […] Fluorescence was measured at 310 K using a FlexStation2 Microplate Reader with excitation and emission wavelengths at 485 nm and 515 nm, respectively. […] CXCR4 variants with EC50 or maximum calcium response values more than three standard deviations from the mean CXCR4WT quantities were deemed significant.
In general terms: A change in cytosolic calcium serves as a functional read-out for many receptors and channels.

Assay [2] has as its target T2, CXCR4(Y12A) (Homo sapiens, UniProt P61073, Y12A).
T2 construct: expressed in transfected cells; host or cells: CHO-K1 stably expressing Galpha15 (transient)
The assay can be described thus: Calcium flux in CHO-K1 cells, FLAG-tagged CXCR4(Y12A). The format is cell-based. As to conditions: relative to wildtype CXCR4. How it is done:
as §1, §2, §3

For assay [3], the target named is T3, CXCL12WT dimerization (Homo sapiens, UniProt P48061).
T3 construct: made in house
The assay can be described thus: Intrinsic tryptophan fluorescence polarization assay of CXCL12WT dimerization. The format is binding. As to conditions: for ΔGdimer: 298 K. As for the experimental part: Fluorescence polarization assay. Fluorescence polarization (FP) assays were performed on a PTI spectrofluorometer equipped with automated polarizers, using a time base polarization method provided by the program Felix32. […] Experiments were performed in duplicate and the reported dimerization Kd values reflect the average of both experiments.
(In fluorescence polarisation assays a small probe gives low polarisation when free and higher when bound to something large.)

Assay [4] relates to U-937 cells. The assay can be described thus: Agarose microdroplet assay of U-937 migration. The format is cell-based. As to conditions: 18-24 h, serum-containing media. As for the experimental part: Agarose microdroplet assay. The agarose microdroplet assay was performed to determine U-937 cellular migration, as previously described. 0.5×10^6 cells/ml U-937 target cells were harvested and washed in HBSS. Cells were spun at 2,000 rpm and were transferred to a graduated 15 ml glass conical tube. The cell concentration was adjusted in agarose medium, prepared from 2% low melting temperature Seaplaque agarose and medium containing 15% FBS, using a 1:4 volume-to-volume dilution. A 1 μl agarose droplet containing 1-10^5 target cells was placed in the center of each well of a 96-well flat-bottom tissue culture plate, in triplicate, using a gastight 0.05 ml Hamilton syringe (Hamilton Company, Reno, Nev.). Droplets were allowed to harden at 4° C. for 20 min. 200 μl chilled test media was applied to each well. […] The plate was incubated for 18-24 h at 37° C. and 5% CO2. Following incubation, the radius of each droplet was determined and target cell migration was measured at four directional points 900 from one another, using an inverted light microscope equipped with a gridded eyepiece, at 40× total magnification. Percent inhibition of each sample was quantified. The plate was incubated for an additional 24 h to measure recovery, and viability was determined by trypan blue exclusion.
Agarose microdroplet assay. The agarose microdroplet assay was performed to determine U-937 cellular migration, as previously described {AdeCXCL121an, 1980 #1609}. 0.5×10^6 cells/ml U-937 target cells were harvested and washed in HBSS. Cells were spun at 2,000 rpm and were transferred to a graduated 15 ml glass conical tube. […] Following incubation, the radius of each droplet was determined and target cell migration was measured at four directional points 900 from one another, using an inverted light microscope equipped with a gridded eyepiece, at 40× total magnification. Percent inhibition of each sample was quantified. The plate was incubated for an additional 24 h to measure recovery, and viability was determined by trypan blue exclusion.

The target in assay [5] is T4, CXCR41-38 (Homo sapiens, UniProt P61073, C28A).
T4 construct: comprising the first 38 amino acids of CXCR4 preceded by a residual GlyMet dipeptide tag; made in house
The assay can be described thus: Binding of CXCL12 variants to CXCR41-38 by 2D NMR chemical shift perturbation. As to conditions: nonlinear fitting of chemical shift perturbations, quadratic binding equation; read-out: Kd (affinity for CXCR41-38). As for the experimental part:
Total peptide additions differed for individual peptide titrations but ranged from 0-160 equivalencies. Spectra were processed using in-house scripts and chemical shift tracking was performed using CARA software. […] For a given interaction, residues with the largest chemical shift perturbations were fitted individually.

T3 sequence (P48061 22-89): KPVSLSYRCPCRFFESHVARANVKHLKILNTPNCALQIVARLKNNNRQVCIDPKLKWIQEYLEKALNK
T1 sequence (P61073 whole entry Y7A/Y12A/Y21A): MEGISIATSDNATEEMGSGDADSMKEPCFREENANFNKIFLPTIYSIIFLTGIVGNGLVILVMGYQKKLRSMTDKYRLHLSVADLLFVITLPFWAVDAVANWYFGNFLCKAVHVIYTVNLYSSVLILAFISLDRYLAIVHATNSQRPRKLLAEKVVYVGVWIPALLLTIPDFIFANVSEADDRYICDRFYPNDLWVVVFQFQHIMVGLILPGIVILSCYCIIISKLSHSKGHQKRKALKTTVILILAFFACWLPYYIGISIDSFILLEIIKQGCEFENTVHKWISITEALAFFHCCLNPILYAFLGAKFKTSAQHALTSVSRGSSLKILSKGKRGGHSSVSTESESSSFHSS
T2 sequence (P61073 whole entry Y12A): as the sequence (P61073 whole entry Y7A/Y12A/Y21A) above, with A7Y, A21Y counted along it
T4 sequence (P61073 1-38 C28A): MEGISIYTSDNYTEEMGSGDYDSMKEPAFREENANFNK

By Kd is commonly meant a measure of binding affinity in units of concentration. Turning to “CXCL12WT: wild type CXCL12 (stromal cell-derived factor-1/SDF-1), SEQ ID NO:1”, the “efficacy (maximum calcium response)” value in assay [1] was ~20 % of the wildtype receptor. The “potency (calcium response)” value in assay [1] (relative to CXCR4(Y21A)) was “did not further diminish the potency relative to CXCR4(Y21A)”. For the same substance, the “reduction of potency (calcium response)” value in assay [2] is 3 fold. The figures for the ΔGdimer in assay [3] (pathway 1: dimerization after sTyr21 sulfopeptide binding) and in assay [3] (pathway 2: dimerization before sulfopeptide binding) were −3.5 kcal mol^− and −2.5 kcal mol^−, respectively. Further, in assay [3] (read-out: Kd for CXCL12WT dimerization, in the presence of 50 mM sulfotyrosine), the Kd amounted to 9.3 ± 1.8 mM. In assay [4], the “maximal inhibition of U-937 cell migration” value was 40.1±18%.
Regarding “CXCL122: constitutively dimeric variant of CXCL12 containing L36C/A65C mutations”, the Kd in assay [5] was determined as 0.0009 ± 0.0003 mM.
